B1: C-His-Rv0489 (enzyme)
chain: MANTGSLVLLRHGESDWNALNLFTGWVDVGLTDKGQAEAVRSGELIAEHDLLPDVLYTSLLRRAITTAHLALDSADRLWIPVRRSWRLNERHYGALQGLDKAETKARYGEEQFMAWRRSYDTPPPPIERGSQFSQDADPRYADIGGGPLTECLADVVARFLPYFTDVIVGDLRVGKTVLIVAHGNSLRALVKHLDQMSDDEIVGLNIPTGIPLRYDLDSAMRPLVRGGTYLDPEAAAAGAAAVAGQGRG
notes: also called C-His-Rv0489c; cofactor dependent phosphoglycerate mutase of M. tuberculosis; not shown: His6, C-terminal, kept
B2: C-His-Rv2135c (enzyme)
chain: MTVILLRHARSTSNTAGVLAGRSGVDLDEKGREQATGLIDRIGDLPIRAVASSPMLRCQRTVEPLAEALCLEPLIDDRFSEVDYGEWTGRKIGDLVDEPLWRVVQAHPSAAVFPGGEGLAQVQTRAVAAVREHDRRLADQHGHDVLWLACTHGDVIKAVIADAFGMHLDSFQRITADPGSVSVVRYTQLRPFVLHVNHTGARLAPALQAAASAQGASPEPNAAVPPGDAVIGGSTD
notes: also called C-His-Rv2315c; not shown: His6, C-terminal, kept

Target: the molecule itself
Test: SEC

Row | Protein | stoichiometry N
1 | B1 | 2
2 | B2 | 4

From article PMC3866925, “Functional characterization of two members of histidine phosphatase superfamily in Mycobacterium tuberculosis” (BMC Microbiology, 2013)
